Test: soluble on expression in E. coli; label from the status in PepcDB or PDB records

Sequence	soluble on expression in E. coli
SEKAVHSSTTSGPAVPGETTKTGTSIIDTAASAVQSFAPVNQIHQHLCAFHFYADDMARQVEAHHFCSHVNEEMRQCLIYDGPDANARLIGLEYIVSEKLFMTLPDEEKKLWHSHEWEVKGGFLFMPGVPGAIQRKDLDKVAKTYGKVFHFWQVDLGHELPIGLPNVMMAVTRDGQLFHEMIQEAEKRFGVSVEGERDSRAYMSGPELGIHPLANGGGKGMKLELREVDIKPVESVGSVFV	soluble
QAPGWLKEMRGEHAPETEEYGIASTAYRARRPFHPQRFFDLINRPWTNGKLLRSKGFFWLASKYKDAGSWSQAGGLMRHGFAGRWWRFVTRDSWPQDKESVASILENWSSETGDCRQELVFIGQNIDFTLLTAELDNCLLTDDEMAAGAERWRQLSDPFGEWYEDEVAA	not soluble
GTSPIQTPINTMSQQYTLPPLPYPYDALQPYISQQIMELHHKKHHQTYVNGLNAALEAQKKAAEATDVPKLVSVQQAIKFNGGGHINHSLFWKNLAPEKSGGGKIDQAPVLKAAIEQRWGSFDKFKDAFNTTLLGIQGSGWGWLVTDGPKGKLDITTTHDQDPVTGAAPVFGVDMWEHAYYLQYLNDKASYAKGIWNVINWAEAENRYIAGDKGGHPFMKL	soluble
MDKQVRNTTEIVRLAKQKSKKTREKVDKAISKFSIEGKVINFNSIAKEANVSKSWLYKEHDIRQRIESLRERQITANVVSKPKKSSRSEEILIKTLKRRVMELEKENKKLQNQIQKLYGDLYNKELEHHHHHH	soluble
AITGIFFGSDTGNTENIAKMIQKQLGKDVADVHDIAKSSKEDLEAYDILLLGIPTWYYGEAQCDWDDFFPTLEEIDFNGKLVALFGCGDQEDYAEYFCDALGTIRDIIEPRGATIVGHWPTAGYHFEASKGLADDDHFVGLAIDEDRQPELTAERVEKWVKQISEELHLDEILNA	soluble
FQDVTNTPVEGMKPYTALQLEGRDIYIREGCVGCHSQMIRPFRAETERYGHYSVAGESVWDHPFLWGSKRTGPDLARVGSRYSDDWHRAHLFNPRNVVPESKMPAYPWLVENKLDGKDIEKKLEVMRTLGVPYTDEDIKGAKDSLKGKTEMDAVVAYLQVLGTSIK	not soluble
MSNIYDSANELSRGLRGLPEYKAVKAAKDAIAADAEASKIFTDYLAFQEEIQKLAQTGQMPDASFQAKMEGFGKQIQGNSLLSEFFTKQQQLAIYLSDIEKIVFEPVSELLK	soluble
MGSDKIHHHHHHMKLVVATNFDDSLLEGLKRYPDVKYIFGSFKRTITGHGRAGFIVPHIKEEQFETHISLAHSYGIKFLYTMNTNTLLGKEYDTEFIGKVMKEVDKLVNFGVDGFIVALPFLIRLIRTEYPDLEVSASSFSRIRNVREVEEYTNLGVNTIIMHEDANRDFKLLKEVAALSRANRFEIELILNNSCLYGCPFRLTHDNISSVTSMVNGVNDVWFEYPVLLCATDVLNDPANLIRSRWIRPEDIKYYEEIGINRFKIAGRNKKTDWILRVVKAYAERKYEGDLLDLVSYPQGRAATKAVQMVNGPSSYFILTSVRIDNTKFPKGWIKFFFTNDCDTRSCKECKYCDIVAERVMTVNGEPFKSSEWSIRQPYPINIIPKFKERK	not soluble
MSLKLFITGIGSGLGKALVEEGIKRGYEVYALSRHLPEEFKEKIHFVKCDLLKVEEVQGCLFKLLSGVKELELAILNAGILGKFSDMKDISLHEIDEVMKVNLWSNKVIIDTLMELGIKVKTLIGISSGAARNCNRGWNAYSLSKAGLNCLLKLYSWELPETKVISLAPGLVLTPMLKEVMSQNEEKYPSIKRIKNAPKLTPEKTAEFIFSILPKLESVESGSFVDVREGHHHHHH	soluble
GSHVFKSRLQEYAQKYKLPTPVYEIVKEGPSHKSLFQSTVILDGVRYNSLPGFFNRKAAEQSAAEVALRELAK	soluble
NIYDSANELSRGLRGLPEYKAVKAAKDAIAADAEASKIFTDYLAFQEEIQKLAQTGQMPDASFQAKMEGFGKQIQGNSLLSEFFTKQQQLAIYLSDIEKIVFEPVSELLK	not soluble
MGSDKIHHHHHHMAGLERGELRQALLAEVKKVCAGQGPEAVSISKIGKSLGVSSGAPFRLFPSREHIFAALIESEMERLDATFERIWSCKTTDPVLRLTDICQAYVDHARTEPAMFRLAFSVSAKAMGAVKLQKIGEDVYEKVQRAVAACVPRHTTTDQVELKSYLLWSTIHGHVMLCMTGQMDDQSIDLPDEIVVASAVQGILKAG	not soluble
MKDDPKVHLEAKELWDQFHKRGTEMVITKSGRRMFPPFKVRCSGLDKKAKYILLMDIIAADDCRYKFHNSRWMVAGKADPEMPKRMYIHPDSPATGEQWMSKVVTFHKLKLTNNISDKHGFTILNSMHKYQPRFHIVRANDILKLPYSTFRTYLFPETEFIAVTAYQNDKITQLKIDNNPFAKGFRDTGNGRR	soluble
MVEIKLENIVKKFGNFTALNNINLKIKDGEFMALLGPSGSGKSTLLYTIAGIYKPTSGKIYFDEKDVTELPPKDRNVGLVFQNWALYPHMTVYKNIAFPLELRKAPREEIDKKVREVAKMLHIDKLLNRYPWQLSGGQQQRVAIARALVKEPEVLLLDEPLSNLDALLRLEVRAELKRLQKELGITTVYVTHDQAEALAMADRIAVIREGEILQVGTPDEVYYKPKYKFVGGFLGNPPMNFVEAKVEDGKLVITEKSKLPIPKQYVEIVKETGITEVIIGFRPHDAEIVKGEGEGIVGEVYSFEPLGREQIVTVSVNDSIVKVFAPEGEHFSFGEKVTIKVKEELLVLFDKKTEKALEFSKL	soluble
MGSDKIHHHHHHMSLVINQLSKRIDHHQTLDGISFEIGLGQIVGVVGRNGVGKTTLFRTINGQYLTDHGQVLVDGQEVVDQPEMRTQLCFIDPLANFFKGATIAQIQWYYQAAYPDFDNAKFAQLLDRYHLTSKQKLRHFSKGMFGLFTIILSVATQAPYLFLDEPLDGLDVLIRKNILGILIDEVATGNRSIVIASHNLAELEGVIDRALMLKHGRIVNDYQLEAMRRSARKVQLVYRDKQIPAVVKQLGHIVHVSGRVIVVVFEDYNAEVQAQLATTNPVFQEDLPLSLADLFMANLTDEADFELLS	not soluble
MSLNSSFFKMMEKRSYNRFNQEQKAAITYDMKKHLRIIAGAGSGKTQTICAKAVYLMTQKQVDEERILMITFTRNAANELKKRVDNFSQRKTAVHIGTFHSIFFRIYNEICRKFPEVAMQGIQGDFSKDTAQKVNAVLQQLIRKYNLYIFDQYGEKTIASRLDYWQNMNLSVEEMVQLVKEKYDSIDKNARQPISERLYGLLTELQEQKRSQQLLEFNDVLQNLKSALENEEIQHYIGQKYDYLFIDEFQDTNPLQWEIVKRMTKENRIKLIVVGDDDQSIYGFRGSEPAYIKNFEKEYPTKTLFLLTNYRSRAAIVQGANRLISYNKNDRIPKAMIPAQKEAGVMEAYLFSDTKAESQWLIKQIQTFIQKNGKYKESIILYRSASQTQQLVQSLLKTNIPFVLEADSPYEGIFGIKSFQHFYQKIVHWQTALNLQKKNQAYQQLLRQLMADCYLKKSECDQYFSPKYQNIAVADYILSISPNLKSKSAEIREFEEALRKTDQHQEIYSLVQSYLHLPRIAKEIDQSDQEWIREEVKQHATFRRLQALSQETQATAKELKTREGHHHHHH	not soluble
MSLKPKRILLVNEQRSFQVMMKAMLINIGISRITYANSAEEARRRCQKETFDIYLLDYELGVGENGRQLLESLRDQKLIPPQSVVIMVSGDSSRAMVLSALEAEPDEYLMKPFSQEQFSFRLKRALARRQALESVFSALAKEDLPTLLAACAERADAVPRFANFCRCLQADTQLKLGQAKEARSLMRQLLAGQENSWARLTLGKACHTLGLNEEAVSHLQATLKNTPLMVEAHLWLAESQLALGNDEQAQQELKRAVDISPQSVQLSRRLAEVCLLRHDYAQAKDVLLSLIDLSRNSIHRTPHYLGAYIQSLTLYALNSNEGHHHHHH	not soluble
MGSDKIHHHHHHMKFFNREKEINKILSIIEGEPNNIYFIYGSLNSGKSTLMREIVVNRLDISKYIPFFIDFRTRNILNVDNFIECLFEVDEKSEIDDFREYAKSLADLLVKGSEEISKYYLGMPIKIPKPFFDKIFNKKDKSADVYQYIEYLFAKLNEKGKKPILIFDELQMIKEITLNGNRKLLWSLFQFLVALTKVQHLCHVFCLSSDSLFIEYVYKTGELEGRADYILVDDFDKQTALKFIDFLAKEILNKKLPKDEKELIYSYVGGKPVLIIKVIDKLRYENLNDILDFMLKDATQKLKYFLNDLDYIKPKVEVGDEVIELKKEDIVKALKLFKDSYEISDSEVAKPIYVYLVKKNILFLNPIEGILKPQSFLIWNAIKRLL	not soluble
MHHHHHHSSGRENLYFQGSEREASRLDKFKQLLAGPNTDLEELRRLSWSGIPKPVRPMTWKLLSGYLPANVDRRPATLQRKQKEYFAFIEHYYDSRNDEVHQDTYRQIHIDIPRMSPEALILQPKVTEIFERILFIWAIRHPASGYVQGINDLVTPFFVVFICEYIEAEEVDTVDVSGVPAEVLCNIEADTYWCMSKLLDGIQDNYTFAQPGIQMKVKMLEELVSRIDEQVHRHLDQHEVRYLQFAFRWMNNLLMREVPLRCTIRLWDTYQSEPDGFSHFHLYVCAAFLVRWRKEILEEKDFQELLLFLQNLPTAHWDDEDISLLLAEAYRLKFAFADAPNHYKK	soluble
MGHHHHHHSHKCNAGFFHTLSGECVPCDCNGNSNECLDGSGYCVTTDGEDPGFSASALSFILSSQGAREARAPT	not soluble
MSIESIRNVIAKDMGEVDNVIQQKLHSQVALVRQVSEYIIHSGGKRLRPALVILAAGLFDYKGLHHHNLAAVVEFIHTATLLHDDVVDESELRRNQATANALFGNAASVLVGDFLYSRAFQMMVEVGNMRVMEVLADATNTIAEGEVLQLLNCRDPDVEEENYLQVIRFKTAKLFEAAARLGAILGGATPAEEEALAAYGMHLGTAFQLVDDLLDYSGNDQDTGKNLGDDLAEGKPTLPLIFAMRSGIPEQVDTVRHAIETGGKDGFEPILKIIQESGALDYAKQCAQNEANMAISAITAIRDSIYKQCLLELAEFAITRNY	not soluble
MSLRLALFDLDNTLLGGDSDHAWGDYLCERGFLDAVAYKTRNDEFYQDYLAGKLDNAAYLNFCLEILGRTDMVVLEEWHRDFMRDCIEPILLPKAQALLDKHRAAGDKLVIITATNRFVTAPIAERLGVETLIATECEMQDGRYTGRSTDVPCFREGKVTRLNRWLEETGHSLEDSYFYSDSMNDLPLLEQVTTAVAVDPDPNLRAEAEKRGWQVISLRDEGHHHHHH	soluble
QVTISITEDCPNNCIHCALPDTKNRAKLSPETVRDVIDQVLEMGTTFVIFDGGEPLTYPGLEELISYVDPEKAITGMFTSGVGLTEERARSLKAAGLYSLTVSFDSAYEEKHDYVRGRKGVFKSAVEAVKNGLAAGLLVNIYVVLSRDNVNELDELYNLAAGLGAHELSFYEIVPTGRWMDHASEIMTPKDMRK	not soluble
MKIVAFNGSPRKGGNTELLIKEVFKPIQEAGIETELVQLGGKLLRGCASCYTCFKTKDGKCAIKTDPMNEFIQKAQEADGIILASPTYYGSVSAEMKAFMDRLGLTTIGQGRTLTRKVGAAVISVRRGGAVTVYDELNRFMLGSGMIVPGSTYWNFGIGEMPGEVFDDAEGLRNMKDLGVQLAWLLKAIHNLEHHHHHH	soluble
MGSDKIHHHHHHMEFHEIDRMAKKLGADIFGVADLDLLREYETFPENLLDSFDFGISIGVKLPDPLFDMLPDSRNLYSRYYVVANDMLDRIAFEISRAIESEGYEALPIPASKVLSDLHWRSYVSHKAIARAAGVGWVGRNLLLITPQFGPRVRLASVLTDMPLKAGKPARNRCGVCRECIDSCITQALRYSEFDDYPERDEVFEVDKCAAKLKEFASNPDIGTMVCGICIKVCPWGKLGNKTKGN	not soluble
MNGRVDYLVTEEEINLTRGPSGLGFNIVGGTDQQYVSNDSGIYVSRIKENGAAALDGRLQEGDKILSVNGQDLKNLLHQDAVDLFRNAGYAVSLRVQHRLQVQNGPI	soluble

Reference: the DeepSol protein solubility set
